Source: US20220195059A1, “Rank Pathway Inhibitors in Combination with CDK Inhibitors” (INSTITUTO DE MEDICINA MOLECULAR JOÃO LOBO ANTUNES, priority 2019, published 2022)

Assays:
[1] = system: phosphorylation of IkBα, NFkB, ERK and AKT in MCF-7 OE and T47D OE cells; test: RANK signalling after sRANKL stimulation of RANK OE cells, western blot; format: cell-based, human; settings: 1 μg/mL sRANKL
Protocol: FIG. 1C provides data that show the activation of RANK signaling pathway. After 24 h in low-serum medium, MCF-7 and T47D cells, or their RANK-overexpressing counterparts MCF-7^OE and T47D^OE, were stimulated with 1 μg/mL soluble RANK ligand (sRANKL) for 0, 5, 10, 20, 40, or 60 min (top panel) or 0, 5, 10, or 25 min (bottom panel). Cell lysates were western blotted using the antibody specific for the indicated protein (IκBα; NK-κB p65; ERK1/2; AKT), or for a phosphorylated version thereof (p-IκBα (Ser32); p-NK-κB p65 (Ser536); p-ERK1/2; p-AKT). β-Actin was used as loading control.
(§1) For this purpose, 4×10^5 cells were seeded in 6-well plates for 24 h, and serum-starved in low-serum medium (0,1% FBS, 1% Pen/Step) for another 24 h. […] Total protein was quantified using Pierce BCA Protein Assay Kit (ThermoSicentific), according to manufacturer's instructions. […]
Membranes were blocked for 1 h at room temperature (RT) in 5% Non-Fat Dry Milk (NFDM) in PBS-0.1% Tween (PBST) for β-actin; or in 5% bovine serum albumin (BSA) (Santa Cruz) for other antibodies. […] Proteins were detected using a Novex® ECL HRP chemiluminescent substrate reagent kit (Invitrogen) according to the manufacturer's instructions, and x-ray films (Fujifilm) developed in a Curix 60 processor (AGFA), or the Amersham™ Imager 680 (GE Healthcare Life Sciences). […]

[2] = system: RANKL-driven RANK pathway activation (ERK, AKT phosphorylation); test: RANKL stimulation and RANKL neutralization, western blot; format: cell-based, human; settings: 1 μg/ml RANKL; serum starved cells
Protocol: It was also confirmed that OPG-Fc is able to neutralize RANKL. Protein expression was assessed by western blot. Cells were seeded in 6-well plates, serum starved for 24 h, and exposed to 1 μg/ml RANKL for the indicated time points (FIG. 26A). For RANKL neutralization (FIG. 26B), RANKL was previously incubated for 60 min at 37° C. in serum-depleted medium±100 ng/ml OPG-Fc or 2.5 μg/ml MAB626, and proteins analyzed after 60 min. β-Actin was used as loading control and band intensity was quantified using FiJi. […] In the presence of OPG-Fc or the anti-RANKL monoclonal antibody MAB626, RANKL-driven RANK pathway activation was decreased (FIG. 26B).
as §1
Membranes were blocked for 1 h at room temperature (RT) in 5% Non-Fat Dry Milk (NFDM) in PBS-0.1% Tween (PBST) for β-actin; or in 5% bovine serum albumin (BSA) (Santa Cruz) for other antibodies. […] Proteins were detected using a Novex® ECL HRP chemiluminescent substrate reagent kit (Invitrogen) according to the manufacturer's instructions, and x-ray films (Fujifilm) developed in a Curix 60 processor (AGFA), or the Amersham™ Imager 680 (GE Healthcare Life Sciences).

MCF-7 RANK OE xenografts = test: MCF-7^OE orthotopic xenograft growth with exogenous sRANKL; format: in vivo, NSG mice; settings: human sRANKL 0.5 mg/every 48 h s.c. vs vehicle; eight weeks
Protocol: Nod scid gamma (NSG) mice were inoculated in the 2nd thoracic mammary fat pad with MCF-7 RANK OE GFP+Luc+ (RANK OE) cells (n=3-4/group). Mice were treated with human sRANKL 0.5 mg/every 48 h s.c. or vehicle (PBS). Tumors were imaged by bioluminescence every week post tumor inoculation untill the end of the experience (eight weeks). FIG. 10A is a graph of the total flux (p/s) measured at the end of experiment. FIG. 10B is a graph of tumor weight at the time of sacrifice for tumors derived from MCF-7 OE cells taken from mice treated with (+) or without (−) sRANKL. FIG. 10C is a graph of the Ki67-positive stained cells from tumors derived from MCF-7 OE cells taken from mice treated with (+) or without (−) sRANKL. Data is presented as mean±SEM. p-value was calculated using 2-way ANOVA or unpaired t-test, *p<0.05, **p<0.01, ***p<0.001.
Tumor growth was monitored weekly by luminescence analysis.
To determine whether the decreased proliferation rate was due to RANKL availability, NSG mice were inoculated with one of Parental, RANK OE, or Mix cells, as described above, and treated with human soluble RANKL or vehicle control subcutaneously.

B1: sRANKL: soluble RANK ligand used as stimulus (protein)
chain: EKAMVDGSWLDLAKRSKLEAQPFAHLTINATDIPSGSHKVSLSSWYHDRGWAKISNMTFSNGKLIVNQDGFYYLYANICFRHHETSGDLATEYLQLMVYVTKTSIKIPSSHTLMKGGSTKYWSGNSEFHFYSINVGGFFKLRSGEEISIEVSNPSLLDPDQDATYFGAFKVRDID
[1]
  RANK pathway activity after stimulation: increased RANK pathway activity
[2]
  phosphorylation of RANK-downstream factors, like ERK and AKT: drives the phosphorylation
MCF-7 RANK OE xenografts
  tumor growth: did not affect
